Measurements: PMC8886820
Like-named read-outs stand apart in the source and are kept apart here.

Columns and labels:
[1] = target: Taxol-stabilized microtubules (UniProt P02550); assay: TIRF microscopy of EGFP-tagged protein on surface-held microtubules
[2] = target: Taxol-stabilized microtubules (UniProt P02550); assay: as above; remark: listed apart in the source
[3] = target: MBP-Spc105(10xMEED)-TST (D. melanogaster); assay: pull-down
[4] = target: phospho-10xMEED (MBP-Spc105(10xMEED)-TST phosphorylated by activated Sli15(INBOX)-Ipl1) (D. melanogaster); assay: pull-down

Taxol-stabilized microtubules, sequence (P02550 whole entry, chain 1 of 2): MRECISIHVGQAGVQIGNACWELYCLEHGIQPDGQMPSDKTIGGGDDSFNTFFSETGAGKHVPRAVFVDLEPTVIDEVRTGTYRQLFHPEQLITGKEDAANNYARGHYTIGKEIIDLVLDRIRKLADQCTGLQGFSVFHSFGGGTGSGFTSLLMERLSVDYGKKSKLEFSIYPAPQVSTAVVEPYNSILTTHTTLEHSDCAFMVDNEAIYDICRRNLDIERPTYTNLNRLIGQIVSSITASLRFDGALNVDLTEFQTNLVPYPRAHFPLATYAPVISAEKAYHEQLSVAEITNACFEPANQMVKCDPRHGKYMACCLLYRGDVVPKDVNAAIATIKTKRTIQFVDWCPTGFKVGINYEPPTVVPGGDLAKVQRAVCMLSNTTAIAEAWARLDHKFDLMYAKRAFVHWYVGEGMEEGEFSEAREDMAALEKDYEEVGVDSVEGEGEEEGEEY
Taxol-stabilized microtubules, sequence (P02554 whole entry, chain 2 of 2, further chain): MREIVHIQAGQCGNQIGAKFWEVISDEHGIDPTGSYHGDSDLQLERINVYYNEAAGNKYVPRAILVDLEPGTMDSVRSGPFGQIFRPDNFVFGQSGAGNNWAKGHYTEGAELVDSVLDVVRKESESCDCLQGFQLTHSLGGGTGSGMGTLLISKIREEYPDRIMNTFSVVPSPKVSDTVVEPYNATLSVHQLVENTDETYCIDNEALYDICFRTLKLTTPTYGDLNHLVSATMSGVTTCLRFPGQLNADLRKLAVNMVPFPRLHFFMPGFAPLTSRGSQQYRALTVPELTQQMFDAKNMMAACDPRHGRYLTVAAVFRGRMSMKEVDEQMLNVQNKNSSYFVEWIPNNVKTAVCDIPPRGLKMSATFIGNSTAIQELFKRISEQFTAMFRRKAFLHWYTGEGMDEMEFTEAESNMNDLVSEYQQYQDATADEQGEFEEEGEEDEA

Spc105-B(1-400)-EGFP phosphorylated with Sli15(INBOX)-Ipl1 (domain or fragment)
percent of the MT binding of unphosphorylated Spc105-B(1-400) in 150 mM KCl [1]: 22.1%

Spc105-A(1-400)-EGFP (domain or fragment)
percent of the MT binding of Spc105-B(1-400) [1]: < 50%

Spc105-B(1-400)-EGFP (domain or fragment)
percent of the MT binding of Spc105-B(1-400) in 150 mM KCl [1]: 14.6% | percent reduction of MT binding against Spc105-B(1-400) without 1,6-HD [1]: 40% | percent of the MT binding of Spc105-B(1-400) in 150 mM KCl [2]: 12.5%

Bub3-EGFP (natural protein)
fold Bub3 bound against the MBP-TST control [3]: 2 fold | fold Bub3 bound against the unphosphorylated MBP-TST control [4]: 30 fold
